These results are taken from patent publication US20230090014A1 (NANJING SANHOME PHARMACEUTICAL, published 2023).

Assay [1] addresses T1, Human CD47-His protein (human, UniProt Q08722 19-136). Kind of assay: ELISA on coated human CD47-His, anti-human IgG HRP, OD450.
A further assay deals with T2, Cynomolgus CD47-His (cynomolgus, UniProt A0A2K5X523 19-139).
T2 construct: Bought protein; also called monkey CD47
Kind of assay: ELISA on coated cynomolgus CD47-His, anti-human IgG HRP, OD450.

Assay [2] has as its target T3, CD47 on the surface of CHO-K1-E5 cells (human, UniProt Q08722 19-323).
T3 construct: Full length CD47 expressed from pTargeT-CD47 in CHO-K1 cells; also called CD47 on cell surface; CHO-K1-hCD47
Description: cell based ELISA on fixed CHO-K1-E5 cells, anti-human IgG HRP, OD450.

A further assay deals with T4, CD47(19-136)-hFc (human, biotin-labelled in the Octet assay of Example 8 (sites not given)).
T4 construct: tied by name; also called CD47-hFc; CD47-hFc-Biotin
Kind of assay: BLI (Fortebio Octet RED96), biotinylated CD47-hFc on SA sensor, antibody in solution.

In assay [3] the target is T3, CD47 on the surface of CHO-K1-E5 cells. Description: FACS blocking assay on CHO-K1-E5 cells; blocked ligand SIRPα-Biotin, PE streptavidin.
For assay [4], the target named is T1, Human CD47-His protein. Description: ELISA of hybridoma supernatant, binding activity to CD47.
Assay [5] addresses T3, CD47 on the surface of CHO-K1-E5 cells. Kind of assay: FACS on CHO-K1-hCD47 cells.
For assay [6], the target named is T1, Human CD47-His protein. Kind of assay: ELISA, human CD47-His coated.
The target in assay [7] is T3, CD47 on the surface of CHO-K1-E5 cells. Kind of assay: FACS on CHO-K1-hCD47 cells, PE anti-human IgG.
For assay [8], the target named is T5, hPD-L1 on the surface of CHO-K1-hPD-L1 and Raji-hPD-L1 cells (human, UniProt Q9NZQ7 19-238).
T5 construct: also called CHO-K1-PD-L1; human PD-L1 on cell surface
Description: FACS on CHO-K1-hPD-L1 cells, PE anti-human IgG.

The target of assay [9] is T1, Human CD47-His protein. Description: competition ELISA: CD47-His coated, SIRPα-biotin as competitor.
Assay [10] concerns the target T3, CD47 on the surface of CHO-K1-E5 cells. Kind of assay: competition FACS on CHO-K1-hCD47 cells, SIRPα-biotin as competitor.
Assay [11] deals with T1, Human CD47-His protein. Description: ELISA on coated human CD47-His, HRP anti-human IgG, OD450.
In a further assay the target is Human PD-L1-His protein (human, UniProt Q9NZQ7 19-238, limits assumed). Kind of assay: ELISA on coated human PD-L1-His, HRP anti-human IgG, OD450.
In assay [12] the target is T3, CD47 on the surface of CHO-K1-E5 cells. Description: FACS blocking assay on CHO-K1-hCD47 cells; blocked ligand SIRPα-biotin, PE-SA.
In assay [13] the target is T5, hPD-L1 on the surface of CHO-K1-hPD-L1 …. Description: FACS blocking assay on CHO-K1-hPD-L1 cells; blocked ligand PD-1-mFc (1 µg/mL), PE anti-mouse IgG.
A further assay deals with Human PD-L1-hFC protein (human, UniProt Q9NZQ7 19-238, limits assumed). Description: competition ELISA on coated PD-L1-hFc; blocked ligand PD-1-mFc (1 µg/mL), anti-mouse IgG HRP, OD450.
A further assay deals with PD-L1-mFc (UniProt Q9NZQ7 19-238, limits assumed). Kind of assay: competition ELISA on coated CD80-hFc; antibody mixed with PD-L1-mFc, bound PD-L1-mFc detected with anti-mouse IgG HRP, OD450. Set-up: unit not given here.
Chain of PD-L1-mFc (Q9NZQ7 19-238 limits assumed): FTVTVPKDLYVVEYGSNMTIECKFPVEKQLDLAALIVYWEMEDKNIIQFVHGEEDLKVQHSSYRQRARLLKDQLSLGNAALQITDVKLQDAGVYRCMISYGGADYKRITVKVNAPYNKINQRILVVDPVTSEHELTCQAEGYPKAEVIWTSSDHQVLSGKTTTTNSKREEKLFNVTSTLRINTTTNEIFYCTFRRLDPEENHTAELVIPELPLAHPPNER

T4 sequence (chain, as listed by the source limits assumed): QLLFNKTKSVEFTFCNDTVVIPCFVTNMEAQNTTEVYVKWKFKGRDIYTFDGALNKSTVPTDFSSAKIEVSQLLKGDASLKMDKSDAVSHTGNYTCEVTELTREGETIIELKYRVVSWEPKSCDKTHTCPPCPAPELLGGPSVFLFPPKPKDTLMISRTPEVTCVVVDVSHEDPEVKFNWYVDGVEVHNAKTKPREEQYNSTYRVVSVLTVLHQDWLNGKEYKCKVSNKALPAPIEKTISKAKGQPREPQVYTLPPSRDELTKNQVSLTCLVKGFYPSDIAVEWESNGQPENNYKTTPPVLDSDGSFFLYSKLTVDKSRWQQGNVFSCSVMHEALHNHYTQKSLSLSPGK
T5 sequence (Q9NZQ7 19-238): as the sequence (Q9NZQ7 19-238 limits assumed) above
Chain of Human PD-L1-His protein (Q9NZQ7 19-238 limits assumed): as above
Chain of Human PD-L1-hFC protein (Q9NZQ7 19-238 limits assumed): as above

B1: Hu26T-31-PE (antibody, IgG4, V domains shown)
VH: QVQLVQSGAEVKKPGASVKVSCKASGYTFTDYYMNWVRQAPGQGLEWIGRIYPGSGLTYYNAKFKGRATVTADKSTSTVYMELSSLRSEDTAVYYCARTSYGSSFPHVWGQGTTVTVSS
VL: DIQMTQSPSSLSASVGDRVTITCKSSQSLLNVNDQKNYLAWYQQKPGKAPKLLIYFASTRESGVPSRFSGSGSGTDFTLTISSLQPEDFATYYCQQHYSTPLTFGQGTKLEIK
notes: also called humanized anti-CD47 antibody Hu26T-31-PE
As to B1, the “EC50 (read off the curve)” value with Human CD47-His protein [1] was about 0.1 nM. For the same molecule, the “EC50 (read off the curve)” value with Cynomolgus CD47-His is about 0.1 nM. For the same molecule, in [2], the “EC50 (read off the curve)” value was about 0.1 nM. In the assay with CD47(19-136)-hFc, the Kd is 0.0587 nM, the koff was 6.13e-05 s⁻¹ and the kon came to 1.04e+06 M⁻¹ s⁻¹. In assay [3], the “IC50 (read off the curve)” value is about 1 nM.

B2: Hu58A-14-PE (antibody, IgG4, V domains shown)
VH: EVQLLESGGGLVQPGGSLRLSCAASGFIFSRFGMAWVRQTPDKRLEWVATISSGGSYTYYPDSVKGRLTISRDNAKTTLYLQMRSLKSEDTAMYYCARQGLLDYLYALDYWGQGTAVTVSS
VL: DIQMTQSPSSVSASIGDRVTITCKASQDINSFLAWFQQKPGKSPRPLIYRAYRLVDGVPSRFSGVGSGQDYSLTISSLDYEDLGIYYCQQYVEFPPTFGAGTMLELK
notes: also called humanized anti-CD47 antibody Hu58A-14-PE
On to B2, for which the “EC50 (read off the curve)” value with Human CD47-His protein [1] was about 0.08 nM. Moreover, the “EC50 (read off the curve)” value with Cynomolgus CD47-His is about 0.1 nM. Besides, in assay [2], the half-maximal effective concentration (EC50 (read off the curve)) was about 0.1 nM. Moreover, in the assay with CD47(19-136)-hFc, the Kd stood at 0.0946 nM, the koff stood at 0.000168 s⁻¹ and the kon was found to be 1.78e+06 M⁻¹ s⁻¹. The “IC50 (read off the curve)” value in assay [3] was about 5 nM.

B3: SHC025-58 (antibody, IgG2b, V domains shown)
VH: EVQLVESGGDLVEPGGSLKLSCAASGFIFSRFGMAWVRQTPDKRLEWVATISSGGSYTYYPDSVKGRLTISRDNAKTTLYLQMRSLKSEDTAMYYCARQGLLDYLYALDYWGQGTAVTVSS
VL: DIKMIQSPSSMYAGLGERVTFNCKASQDINSFLCWFQQKPGKSPRPLIYRAYRLVDGVPSRFSGVGSGQDYSLTISSLDYEDLGIYYCQQYVEFPPTFGAGTMLELK
notes: tested as culture supernatant
For the molecule B3, in the assay with Human CD47-His protein [4], the binding result was “binds”.

B4: AB6.12-IgG4P (antibody, V domains shown)
VH: QMQLVQSGAEVKKTGSSVKVSCKASGFNIKDYYLHWVRQAPGQALEWMGWIDPDQGDTEYAQKFQDRVTITRDRSMSTAYMELSSLRSEDTAMYYCNAAYGSSSYPMDYWGQGTTVTVSS
VL: NIQMTQSPSAMSASVGDRVTITCKASQDIHRYLSWFQQKPGKVPKHLIYRANRLVSGVPSRFSGSGSGTEFTLTISSLQPEDFATYYCLQYDEFPYTFGGGTKVEIKR
notes: Anti-CD47 control antibody from WO2013/119714; also called AB06.12-4P; AB06.12-P
On to B4, for which the figures for the “EC50 (read off the curve)” value (with Human CD47-His protein [1]; with Cynomolgus CD47-His; in assay [2]) were about 0.08 nM, about 0.1 nM and about 0.1 nM, respectively. The molecule also registered a Kd with CD47(19-136)-hFc of 0.101 nM. The koff with CD47(19-136)-hFc is 0.000485 s⁻¹. In addition, the on-rate constant (kon) with CD47(19-136)-hFc amounted to 4.8e+06 M⁻¹ s⁻¹. Further, the “IC50 (read off the curve)” value in assay [3] is about 1 nM.

B5: ScFab (HuPL7-21Ks/Hu34-39Hs) (bispecific antibody)
chain 1: not shown
chain 2: EIVLTQSPGTLSLSPGERATLSCRASSSVSSSYLNWYQQKSGASPKLWIYSTSNLASGVPGRFSGSGSGTSYSLTISSVEAEDAATYYCQQYSGYPLTFGAGTKLEVKRTVAAPSVFIFPPSDEQLKSGTASVVCLLNNFYPREAKVQWKVDNALQSGNSQESVTEQDSKDSTYSLSSTLTLSKADYEKHKVYACEVTHQGLSSPVTKSFNRGECGGGGSGGGGSGGGGSGGGGSGGGGSGGGGSQVQLQESGPGLVKPSQTLSLTCKASGYTFTNYWITWVKQRPGQGLEWIGDITPGRGETNYNQKFKGRVTLTVDISASTAYMELSSLRSEDTAVYYCSRWGLRRGDYWGQGTSVTVSSASTKGPSVFPLAPCSRSTSESTAALGCLVKDYFPEPVTVSWNSGALTSGVHTFPAVLQSSGLYSLSSVVTVPSSSLGTKTYTCNVDHKPSNTKVDKRVESKYGPPCPPCPAPEFEGGPSVFLFPPKPKDTLMISRTPEVTCVVVDVSQEDPEVQFNWYVDGVEVHNAKTKPREEQFNSTYRVVSVLTVLHQDWLNGKEYKCKVSNKGLPSSIEKTISKAKGQPREPQVCTLPPSQEEMTKNQVSLSCAVKGFYPSDIAVEWESNGQPENNYKTTPPVLDSDGSFFLVSRLTVDKSRWQEGNVFSCSVMHEALHNHYTQKSLSLSLGK
notes: also called BiAb; Bi Ab
Consider B5, for which the “fold decrease of Emax against Hu34-39-PE” value in assay [5] is about 2 times. Besides, the “fold increase of EC50 against Hu34-39-PE” value in assay [5] is about 4 times. Besides, the “fold increase of binding EC50 against Hu34-39-PE” value with Human CD47-His protein [6] is 40 fold. Further, the “EC50 (read off the curve)” value in assay [7] was about 10 nM; in assay [8] it was about 2 nM; with Human CD47-His protein [11], about 2000 nM; in the assay with Human PD-L1-His protein, about 200 nM. Moreover, the results for the “fold increase of IC50 against Hu34-39-PE” value (in the assay with Human CD47-His protein [9]; in assay [10]) were about 40 times and 3 times, respectively. In addition, the “IC50 (read off the curve)” value was about 8 nM in assay [12], about 3 nM in [13], about 1000 nM with Human PD-L1-hFC protein and about 10 in the assay with PD-L1-mFc.

B6: ScFab (HuPL16-42Ks/Hu34-39Hs) (bispecific antibody)
chain 1: not shown
chain 2: EIVLTQSPGTLSLSPGERATLSCRASSSVSSSYLNWYQQKSGASPKLWIYSTSNLASGVPGRFSGSGSGTSYSLTISSVEAEDAATYYCQQYSGYPLTFGAGTKLEVKRTVAAPSVFIFPPSDEQLKSGTASVVCLLNNFYPREAKVQWKVDNALQSGNSQESVTEQDSKDSTYSLSSTLTLSKADYEKHKVYACEVTHQGLSSPVTKSFNRGECGGGGSGGGGSGGGGSGGGGSGGGGSGGGGSQVQLQESGPGLVKPSQTLSLTCKASGYTFTNYWITWVKQRPGQGLEWIGDITPGRGETNYNQKFKGRVTLTVDISASTAYMELSSLRSEDTAVYYCSRWGLRRGDYWGQGTSVTVSSASTKGPSVFPLAPCSRSTSESTAALGCLVKDYFPEPVTVSWNSGALTSGVHTFPAVLQSSGLYSLSSVVTVPSSSLGTKTYTCNVDHKPSNTKVDKRVESKYGPPCPPCPAPEFEGGPSVFLFPPKPKDTLMISRTPEVTCVVVDVSQEDPEVQFNWYVDGVEVHNAKTKPREEQFNSTYRVVSVLTVLHQDWLNGKEYKCKVSNKGLPSSIEKTISKAKGQPREPQVCTLPPSQEEMTKNQVSLSCAVKGFYPSDIAVEWESNGQPENNYKTTPPVLDSDGSFFLVSRLTVDKSRWQEGNVFSCSVMHEALHNHYTQKSLSLSLGK
As to B6, the “fold decrease of Emax against Hu34-39-PE” value in assay [5] was about 2 times. For the same molecule, in assay [5], the “fold increase of EC50 against Hu34-39-PE” value was about 4 times. In addition, the “fold increase of binding EC50 against Hu34-39-PE” value with Human CD47-His protein [6] was about 40 times. For the same molecule, the results for the “EC50 (read off the curve)” value (in assay [7]; in [8]; with Human CD47-His protein [11]) were about 10 nM, about 2 nM and about 2000 nM, respectively. Further, the “fold increase of IC50 against Hu34-39-PE” value with Human CD47-His protein [9] is about 40 times; in [10], 3 times. The “IC50 (read off the curve)” value in assay [12] and in [13] was about 5 nM each time.

B7: SHC025-26 (antibody, IgG1, V domains shown)
VH: QVQLKQSGAELVRPGASVKLSCKASGYIFTDYYMNWVKQRPGQGLEWIARIYPGSGLTYYNAKFKGKATVTAEKSSSTAYMQLSSLTSEDSAVYFCARCSYGSSFPHVWGTGTTVTVSS
VL: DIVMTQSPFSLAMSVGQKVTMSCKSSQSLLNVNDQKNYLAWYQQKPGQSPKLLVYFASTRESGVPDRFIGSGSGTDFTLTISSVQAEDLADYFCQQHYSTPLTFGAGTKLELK
notes: tested as culture supernatant
Turning to B7, in the assay with Human CD47-His protein [4], the binding result was “binds”.

B8: SHC025-34 (antibody, IgG2c, V domains shown)
VH: QVQLQQPGAELVKPGASVKMSCKASGYTFTNYWITWVKQRPGQGLEWIGDITPGRGETNYNEKFKSKATLTVDTSSSTAYMQLTSLTSEDSAVYYCSRWGLRRGDYWGQGTSVTVSS
VL: ENVLTQSPAIMSASPGEKVTMTCRASSSVSSSYLNWYQQKSGASPKLWIYSTSNLASGVPGRFSGSGSGTSYSLTISSVEAEDAATYYCQQYSGYPLTFGAGTKLEVK
notes: tested as culture supernatant
Regarding B8, the binding result in the assay with Human CD47-His protein [4] is on record as “binds”.
